Measurements published in paper PMC13078783, “Kinesin-1 conformational dynamics are controlled by a cargo-sensitive TPR switch” (eLife, 2026).
No end group written: not given here.

Key:
KLC1 TPR domain = biological target: T1, KLC1 TPR domain; experiment: fluorescence polarisation; TAMRA-conjugated peptide at 150 nM, increasing KLC1/2 TPR protein (typically 0–25 μM); 25 mM HEPES pH 7.4, 5 mM β-mercaptoethanol, 150 mM NaCl; room temperature; one-site specific binding model; details: both partners purified
T1 construct: also called isolated TPR domains; KLC-1 TPR protein; source: E. coli BL21(DE3), purified (His-Trap, SEC)

KLC2 TPR domain = biological target: T2, KLC2 TPR domain; experiment: as above; details: both partners purified
T2 construct: kinesin light chain 2 (KLC2), TPR domain, residues A196-K480, in pET28His-Thrombin; source: E. coli BL21(DE3), purified (His-Trap, SEC)

[1] = biological target: the molecule itself; experiment: AUC; sedimentation equilibrium, 20 °C, PBS, 100 μM total peptide, 44–60 krpm, single ideal species model

In the case of ENEALKDEVKELLQALEELAVNYDQLSQ-NH2 (also: TAMRA-conjugated, position not given here) [Eng-TDS], the Kd (KLC1 TPR domain) is reported as ~25 µM, the Kd (KLC2 TPR domain) is reported as 2.7 µM and the “stoichiometry N” value [1] is reported as 2.
